This note sets out measurements from patent US20050196404A1.

Assay [1] has as its target HLA-E SCD (HLA-E single chain dimer) (human). Nature of the assay: flow cytometry, stably transfected LLC-PK1 cells. A general note: In flow cytometry, cells or beads pass a laser one at a time.
The target of assay [2] is E-Cw*03 SCT (HLA-E single chain trimer with the peptide …) (human). Nature of the assay: flow cytometry, stably transfected LLC-PK1 cells.
Assay [3] has the same target. Nature of the assay: flow cytometry, sorted E-Cw*03 SCT LLC-PK1 stable transfectants.
Assay [4] addresses E-hsp60 SCT (HLA-E SCT harboring the hsp60-derived peptide …) (human). Nature of the assay: flow cytometry, stably transfected LLC-PK1 cells.

Take HLA-E-specific mAb 3D12 (antibody): the mean fluorescent intensity (MFI) in assay [1] was found to be 62 MFI; in assay [2] it was 375 MFI. Also, in assay [3], the percent of cells stained turned out to be 100%.
As to HLA-E-specific mAb MEM-E/6 (antibody), the fold less staining than E-Cw*03 SCT in assay [4] lay in the range of 4 to 5 fold.
